Experimental data taken from article PMC5382721 (Cell reports, 2017).
One block for each molecule: values may come before it.

Experiments:
[1] = target: GST-eIF3c-E_(87–163) (yeast (S. cerevisiae)) (UniProt P32497); assay: pull-down
[2] = target: GST-eIF3c-G_(1–58) (yeast (S. cerevisiae)) (UniProt P32497); assay: pull-down
[3] = target: eIF1 (yeast (S. cerevisiae)) (UniProt P32911); assay: ITC
eIF1-K37E = eIF1-K37E (yeast (S. cerevisiae), UniProt P32911 1-108, K37E); assay: ITC
eIF1-L96P = eIF1-L96P (yeast (S. cerevisiae), UniProt P32911 1-108, L96P); assay: ITC
eIF1 = eIF1 (yeast (S. cerevisiae), UniProt P32911 1-108); assay: ITC
eIF1, sequence (P32911 whole entry): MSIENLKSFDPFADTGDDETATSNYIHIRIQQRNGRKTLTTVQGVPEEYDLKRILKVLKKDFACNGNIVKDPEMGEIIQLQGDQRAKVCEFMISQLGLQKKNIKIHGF

eIF1 (yeast (S. cerevisiae)), sequence (P32911 whole entry): as above
eIF1-L96P, sequence (P32911 whole entry L96P): as the sequence (P32911 whole entry) above, with L96P counted along it
eIF1-K37E, sequence (P32911 whole entry K37E): as the sequence (P32911 whole entry) above, with K37E counted along it

- amount of eIF1 bound relative to that bound to GST-eIF3c-F [1]: < 10%
- amount of eIF1 bound relative to that bound to GST-eIF3c-F [2]: < 10%
Molecule: eIF1 (from UniProt P32911 1-108) (natural protein)

- Kd [3]: > 100000 nM
- stoichiometry N (eIF3c molecules bound per eIF1 molecule) [3]: 0.4
Molecule: eIF3c-E_(87–163) (from UniProt P32497 87-163) (domain or fragment)

- fold reduction of binding against WT eIF1 (eIF1-K37E): 4 fold
- fold reduction of affinity against WT eIF1 (eIF1-L96P): 10 fold
B1: eIF3c-B_(36–163) (domain or fragment, yeast (S. cerevisiae), UniProt P32497 36-163, looked up)
chain: SESELDQESDDSFFNESESESEADVDSDDSDAKPYGPDWFKKSEFRKQGGGSNKFLKSSNYDSSDEESDEEDGKKVVKSAKEKLLDEMQDVYNKISQAENSDDWLTISNEFDLISRLLVRAQQQNWGT

- Kd (eIF1): ~1000 nM
B2: eIF3c-F_(1–87) (domain or fragment, yeast (S. cerevisiae), UniProt P32497 1-87, looked up)
chain: MSRFFSSNYEYDVASSSSEEDLLSSSEEDLLSSSSSESELDQESDDSFFNESESESEADVDSDDSDAKPYGPDWFKKSEFRKQGGGS

- Kd (eIF1): ~8000 nM
- stoichiometry N (eIF1): 1 eIF3c molecules bound per eIF1 molecule
B3: eIF3c-D_(58–163) (domain or fragment, yeast (S. cerevisiae), UniProt P32497 58-163, looked up)
chain: ADVDSDDSDAKPYGPDWFKKSEFRKQGGGSNKFLKSSNYDSSDEESDEEDGKKVVKSAKEKLLDEMQDVYNKISQAENSDDWLTISNEFDLISRLLVRAQQQNWGT

- Kd (eIF1): ~1000 nM
B4: eIF3c-C_(36–87) (domain or fragment, yeast (S. cerevisiae), UniProt P32497 36-87, looked up)
chain: SESELDQESDDSFFNESESESEADVDSDDSDAKPYGPDWFKKSEFRKQGGGS
